Bridge positions count the residues as written; N and C are the ends. Peptide text beside a SMILES is read from it. * marks the point of attachment. Biotin = O=C1N[C@H]2[C@H](CS[C@H]2CCCCC(=O)*)N1
How the values were obtained:
[1] = target: laminin (Mus musculus, UniProt P02468+P02469+P19137); assay: SPR: laminin binding to collagelin
[2] = system: 9O12.2 IgG; assay: SPR: 9O12.2 IgG injected over immobilized biotin-collagelin; format: binding; settings: 9O12.2 IgG 5 μg/ml, competitor 25 μg/ml
Protocol: A Biacore 2000 instrument (GE Healthcare Europe GmbH, Orsay, France) (Université Paris 7, Institut Jacques Monod, Paris, France) was used to characterize the binding properties of the synthesized peptides. Biotinylated peptides (˜20 RU) were covalently coupled to the surface of a SA-sensorchip.
Glycine-HCl (10 mM pH 2.5) was injected for 30 s at 20 μL·min-1 to regenerate the sensorchip between each sample. Sensorgrams were analyzed with the BIA evaluation version 3.1 software. Kinetic constants (kon, koff) were deduced from the analysis of association and dissociation rates at four different IgG concentrations ranging from 1.25 to 10 μg·mL^−1. The dissociation constant KD was calculated from KD=koff/kon. […] In some experiments, the peptide was reduced by DTT on the sensor chip before injection of the IgG. Competition experiments were performed by mixing the IgG with recombinant soluble GPVI (25 μg·mL^−1). Collagen binding to the peptide was analysed by injecting type I equine collagen (Collagen Horm, Nycomed. Germany) (200 μg·mL^−1 in EBS-EP buffer) onto the peptide-coated sensorchip.

[3] = system: type I equine fibrillar collagen (Horm); assay: Solid phase assay on collagen-coated microtitration plates; format: binding; settings: competitor mixed with collagelin, 50 and 20 μg/mL (3J24.2: 50 μg/mL)

CSCC[C@@H]1NC(=O)[C@H](C(C)C)NC(=O)[C@H](CCCNC(=N)N)NC(=O)[C@@H]2CCCN2C(=O)CNC(=O)[C@@H](NC(=O)CNC(=O)[C@H](CO)NC(=O)CNC(=O)[C@H](CO)NC(=O)CCCC[C@@H]2SC[C@@H]3NC(=O)N[C@@H]32)CSSC[C@@H](C(N)=O)NC(=O)[C@@H]2CCCN2C(=O)CNC(=O)[C@H](CCC(=O)O)NC(=O)[C@H](CC(=O)O)NC(=O)[C@H](CC(=O)O)NC(=O)CNC(=O)[C@H](CC(C)C)NC(=O)[C@H](Cc2c[nH]cn2)NC(=O)[C@H](CC(C)C)NC(=O)CNC(=O)[C@H](Cc2c[nH]cn2)NC1=O [collagelin] (Biotin-SGSGCGPRVMHGLHLGDDEGPC-NH2; disulfide 5-22)
Kd [1]: 18.3 µM

B1: recombinant soluble GPVI: soluble recombinant GPVI-Fc fusion protein (protein)
chain: QSGPLPKPSLQALPSSLVPLEKPVTLRCQGPPGVDLYRLEKLSSSRYQDQAVLFIPAMKRSLAGRYRCSYQNGSLWSLPSDQLELVATGVFAKPSLSAQPGPAVSSGGDVTLQCQTRYGFDQFALYKEGDPAPYKNPERWYRASFPIITVTAAHSGTYRCYSFSSRDPYLWSAPSDPLELVVTGTSVTPSRLPTEPPSPVAEFSEATAELTVSFTNEVFTTETSRSITASPKESDSPAGPARQYYTKGN
modifications: left off: a dimerising Fc or GST
notes: soluble recombinant GPVI-Fc fusion protein
inhibition of 9O12.2 IgG binding to immobilized biotin-collagelin by competitor [2]: completely inhibited | inhibition of biotin-collagelin binding to collagen by competitor [3]: completely inhibited
